Measurements as given in patent US20110201105A1, “LACTATION-ASSOCIATED POLYPEPTIDES” (Dairy Australia Limited, priority 2007, published 2011).
Entries after “also recorded” stand apart in the source; their conditions may differ.

B1: LAM 32: Cathelicidin antimicrobial peptide; tammar wallaby polypeptide SEQ ID NO 188, bovine SEQ ID NO 220 (protein)
chain: QALSYREAVLRAVDQLNEQSSEPNIYRLLELDQPPQDDEDPDSPKRVSFRVKETVCSRTTQQPPEQCDFKENGLLKRCEGTVTLDQVRGNFDITCNNHQSIRITKQPWAPPQAARLCRIVVIRVCR
B2: LAM 19: EBP: Emopamil binding protein (sterol isomerase); tammar polypeptide SEQ ID NO 49, bovine SEQ ID NO 109 (protein)
chain: MTTNTSPMHPYWPRHLRLDNFVPNDYPTWHILAGLFSVSGVLVVATWLLSGRAAVVPLGTWRRLSLCWFAVCGFIHLVIEGWFSLYHADLLGDQAILSQLWKEYAKGDSRYILNDNFMICMETVTAYLWGPLSLWVVIAFLRHQPLRFVLQLVVSMGQVYGDVLYFLTEYRDGFQHGELGHPLYFWFYFVFLNSLWLVVPGLLILDSIKQLAHAQSILDAKAPKAKSKQXLKSDELGLNTGYEELSTYQKIPILAPTGRKDKLN
modifications: X: residue not identified in the source; ends and bridges not checked

How the values were obtained:
[1] = tested on: bovine mammary epithelial cells; assay: Cellular morphology assay, bovine mammary epithelial cells; format: cell-based; conditions: 1:5 dilution of secreted polypeptide, 48 hours (FIG. 6)
Protocol: FIG. 6. Cellular morphology assay. To determine the ability of LAMs to influence cellular morphology, bovine mammary epithelial cells were plated onto a extracellular matrix and the cells were subsequently allowed to migrate to form mammospheres in the presence or absence of each LAM. The figure contains Panel A (Negative control) and Panels B to G (Presence of a LAM for which one LAM polypeptide is represented in one panel).
Candidate LAM polypeptides that are able to regulate the function and differentiation of the mammary gland were screened by culturing bovine mammary epithelium in the presence of a 1:5 dilution of the secreted polypeptide LAMs for 48 hours as described for the TGR assays in Example 4. Cells were examined microscopically for gross morphological changes and for their ability to induce cell differentiation.

ERK1/2 = ERK1/2 activation in Swiss 3T3 cells by bovine polypeptides; format: cell-based; conditions: cell supernatants containing bovine polypeptide, listed as CAMP
Protocol: Swiss 3T3 cells were treated with cell supematants containing bovine TCN 1 polypeptide. […] An increase in relative fluorescence units over the control indicates ERK activation.
Aliquots of the CRC-IDP samples were used to activate HSC-2 cells in a 96 well plate. Confluent and serum-starved cells were presented with the samples at a final dilution of 1:2. Cells were also stimulated with an internal control for activation of cells (Stim=10% serum) or left unstimulated (unstim). After 10 minutes with the CRC-IDP samples or control stimulus, cells were lysed and assayed for ERK activation using TGR's proprietary assay technology (SureFire). FIG. 12 presents the results as the mean+/−SEm of 3 separate samples. The data is from a single experiment.

mouse ES cells = assay: Cell growth with cathelicidins in mouse ES cells; format: cell-based; set-up: cell growth Rep. 1 / cell growth Rep. 2 / cell growth Rep. 3 / cell growth Mean: unit not given here; conditions: 24 hours
Protocol: Mouse ES cells were plated at 50 percent confluency and cultured for 24 hours in a 1:10 dilution of serum and antibiotic free Optimem and media conditioned with cathelicidin associated polypeptides. The medium was removed and then washed gently for 2 minutes with Mg^2+- and Ca^2+-free phosphate buffered saline 0.05% Trypsin and 1:5000 Versene to disrupt cell aggregates. Cells were collected by scraping and washed twice by resuspension in complete medium followed by centrifugation. The cells were again resuspended and counted in triplicate using a Luber haemocytometer.
(§1) The cells were counted in triplicate using a Luber haemocytometer. The negative control was media alone (i.e. conditioned media […] insertless vector). The samples were deemed statistically significant using a t-test comparing the control with the sample if the values of cell growth were 2 standard deviations higher than the mean of the negative control.

HC11 cells = assay: Cell growth with cathelicidins in HC11 cells; format: cell-based, mouse; set-up: cell growth Rep. 1 / cell growth Rep. 2 / cell growth Rep. 3 / cell growth Rep. 4 / cell growth Mean: unit not given here; conditions: 72 hours
Protocol: FIG. 2. Cellular growth assay with HC11 cells. Mouse mammary epithelial cells, HC11 cells, were grown in media conditioned with: mock transfection (control), LAM32, LAM32a or LAM32b for 72 hours. Samples were performed in triplicate and the cells from each triplicate counted in triplicate. […] LAM 32 is represented as set forth in SEQ ID NO: 188, and two splice variants thereof, designated LAM32a and 32b as set forth in SEQ ID NO: 215 and 207 respectively.
As shown in FIG. 2 equal numbers of mouse mammary HC11 cells were grown in the presence of either a negative control or tammar wallaby cathelicidin-associated polypeptide, namely LAM 32 (SEQ ID NO: 188), LAM 32a (SEQ ID NO: 215) or LAM 32b (SEQ ID NO: 207) in order to determine the effect of these LAMs on cellular growth.
HC11 cells were initially plated at 50 percent confluency and cultured for 72 hours in a 1:10 dilution of serum and antibiotic free Optimem and media conditioned with cathelicidin associated polypeptides. The medium was removed and then washed gently for 2 minutes with Mg^2+- and Ca^2+-free phosphate buffered saline (PBS), 0.05% Trypsin and 1:5000 Versene to disrupt cell aggregates. Cells were collected by scraping and washed twice by resuspension in complete medium followed by centrifugation. The cells were again resuspended and counted in triplicate using a Luber haemocytometer.
as §1

p38 MAPK = p38 MAPK assay of inflammatory activity in RAW macrophage cells; format: cell-based
Protocol: Plasmids containing Tammar wallaby LAMs were directionally cloned into the expression vector pCMV Sport 6.0, and then transfected into the human kidney cell line HK293. A total of 1 μg of LAM-containing plasmid DNA and 10 ng of pEGFP-C1 plasmid was introduced into 70% confluent HK293 cells in 2 cm^2 wells containing 500 ul of opti-MEM-1 media. Transfection success was assessed by observing green fluorescence of cells by fluorescent microscopy. After 48 hours conditioned media containing the secreted polypeptide was collected and frozen at −20° C. The media containing the secreted polypeptides was then used directly in a variety of bioactivity assays. For the assays described below, samples of secreted polypeptides were aliquoted into individual wells of 96 or 384 well plates and stored, prior to assaying, either frozen or lyophilized.
A negative control created by transfection with an insertless vector was used in all assays. For the assays described in Examples 4A, 4B, 4C and 4D results for samples were in the form of relative fluorescence units (RFU) as described herein. […] In some cases, RFU less than two standard deviations from the mean were considered significant if the LAM sample in question produced a positive result in another assay. […]
Activation of p38 MAPK was assessed in RAW macrophage cells. […]

trefoil 1 = assay: Induction of trefoil proteins in AGS cells (peroxidase immunodetection); format: cell-based, human
Protocol: FIGS. 11A and B: Peroxidase assay for trefoil activity. Supematants of HEK293 cells expressing tammar mammary clones were applied to the human gastric epithelial cell line, AGS, for 48 hours. The resultant AGS cell conditioned media containing stimulated AGS cell secreted proteins, and the AGS cells, were lysed. Samples of the AGS cell secreted proteins and cell lysates, and a recombinant positive control were transferred to a solid support and probed using a rabbit anti-trefoil 1 antibody and a secondary goat anti-rabbit antibody conjugated to horse radish peroxidase was used to detect the trefoil 1. A: Detection of secreted trefoil 1 in supematants from stimulated AGS cells. B: Detection of expression of trefoil 1 in stimulated AGS cell lysate samples.
In addition, supernatants of HEK293 cells expressing tammar mammary clones were applied to the human gastric epithelial cell line, AGS, for 48 hours. The resultant AGS cell conditioned media containing stimulated AGS cell secreted proteins (i.e. supernatant) were collected and the AGS cells were lysed. […]

[2] = tested on: mouse embryonic stem (ES) cells; assay: Cellular differentiation assay, mouse ES cells with Oct4-βgal transgene; format: cell-based; conditions: tammar wallaby polypeptides, LIF 1000 U/ml, 1:5 dilution, 48 hours (FIG. 7)
Protocol: FIG. 7. Cellular differentiation assay. To determine the ability of LAMs to influence cell differentiation, mouse embryonic stem (ES) cells were cultured in the presence of leukemia inhibitory factor (LIF) 1000 U/ml and the LAM in question a 1 in 5 dilution of the secreted polypeptides and cultured for 48 hours. […] This figure contains Panel A (Negative control) and Panels B to L (Presence of a LAM for which one LAM polypeptide is represented in one panel).
To determine the ability of LAMs to influence cellular differentiation, mouse embryonic stem (ES) cells were cultured in the presence of a leukemia inhibitory factor (LIF) 1000 U/ml and a 1:5 dilution of the secreted polypeptide LAMs for 48 hours.

chicks = assay: Chick growth assay (in ovo injection, weight at hatching); format: in vivo
Protocol: FIG. 5. Chick growth assay by measuring weight. 10 LAMs (being bovine homologues having homology to specific Tammar ESTs), 3 known bovine cathelicidins, and four bovine cathelicidin variants were tested. Conditioned media containing a LAM polypeptides or bovine cathelicidins or variants thereof was diluted in a total of 1 ml of normal saline. Eggs on day 16 of incubation were injected with 1 ml of the media containing the into the broad end of the egg. Chicks were weighed on day of hatching. The overall condition of the chick was assessed including the possible presence of stumpy legs and/or loss of down feathers.
Conditioned media containing LAM polypeptides or bovine cathelicidins or variants thereof were diluted in a total of 1 ml of normal saline. Eggs on day 16 of incubation were injected in ovo with 1 ml of LAM polypeptides or bovine cathelicidins or variants thereof into the broad end of the egg. Chicks were weighed on day of hatching. Controls included saline only, or saline and 10 mg/ml of a peptide as a random peptide control.
As set out in Table 23, the left column indicates the polypeptide used in the assay while the right column contains chick weight in grams as a measurement of chick growth. Bolded numbers represent a chick(s) larger than the controls and more than 2 standard deviations from the mean. In addition, bolded numbers represent chicks that have been killed. The mean represents the weight of all the chicks tested within this experiment.

Molecule | influence on cellular morphology [1] | ERK1/2 activation (ERK1/2) | cell growth Rep. 1 (mouse ES cells; 1:10 dilution conditioned media, -ve control 0.34) | cell growth Rep. 3 (mouse ES cells; -ve control 0.352) | cell growth Rep. 2 (mouse ES cells; -ve control 0.474) | cell growth Mean (mouse ES cells; -ve control mean 0.388666667) | cell growth Rep. 1 (HC11 cells; 1:10 dilution conditioned media, -ve control 0.727) | cell growth Rep. 2 (HC11 cells; -ve control 0.76) | cell growth Rep. 3 (HC11 cells; -ve control 0.786) | cell growth Rep. 4 (HC11 cells; -ve control 0.808) | cell growth Mean (HC11 cells; -ve control mean 0.77025) | cell growth versus control (significance) (HC11 cells; P<0.05 t-test) | RFU (p38 activation, pro-inflammatory activity) (p38 MAPK; 30 minutes, Mean RFU 12253, SD RFU 7395, negative control 11004 RFU) [RFU] | pro-inflammatory activity (RFU significantly above the mean) (p38 MAPK; text summary of Tables 12 and 13) | Trefoil-inducing activity: Function (trefoil 1; 48 hours, trefoil 1 in supernatant (secretion) and cell lysate (expression)) | trefoil 1 expression and/or secretion (trefoil 1; Table 16) | cellular differentiation [2] | chick size versus controls (chicks; body weight relative to mean/median of all chicks tested) | Chick weight (chicks; bovine polypeptides in conditioned media, 1 ml in ovo on day 16 of incubation, weighed on day of hatching, Saline 51.0) [grams]
B1 | induced a significant change in quaternary structure and/or cellular morphology | activates ERK1/2; also recorded: ERK1/2 activation | 0.721 | 0.784 | 0.548 | 0.6843 | 0.985 | 0.927 | 0.968 | 1.026 | 0.9765 | significantly more cells | – | – | – | – | – | – | –
B2 | – | – | – | – | – | – | – | – | – | – | – | – | 66112 | pro-inflammatory activity | enhanced expression and secretion | enhance trefoil 1 expression in AGS cells as well as enhance the secretion of trefoil 1 | induced cellular differentiation | falls just outside 2 standard deviations from the median of chick weights | 57.1
